Measured values as given in patent US20220169695A1 (published 2022).

Target: T1, NY-ESO-1 peptide on HLA-C*03:04 (human)
T1 peptide: LAMPFATPM
Experiment: multimer staining
From the text: FIGS. 4A-4I are graphical representations of positive staining of Jurkat 76/CD8 cells transduced with C*03:04/NY-ESO-1₉₂₋₁₀₀ TCR genes with a cognate multimer. Jurkat 76/CD8 cells transduced with the C*03:04/NY-ESO-1₉₂₋₁₀₀ TCR (FIGS. 4B, 4E, and 4H) were stained with the C*03:04/NY-ESO-1₉₂₋₁₀₀ multimer (FIG. 4B). The C*03:04/HIV gag₁₆₄₋₁₇₂ multimer (FIGS. 4D, 4E, and 4F), C*07:02/MAGE-A1₂₈₉₋₂₉₇ TCR (clone CL2; FIGS. 4C, 4F, and 4I), and an unexchanged multimer (FIGS. 4G, 4H, and 4I) were employed as controls, as well as Jurkat 76/CD8 not transduced with a TCR (FIGS. 4A, 4D, and 4G). The percentage of multimer⁺ CD8⁺ cells is shown.
T cells (1×10⁵) were incubated for 30 minutes at 37° C. in the presence of 50 nM dasatinib (LC laboratories). The cells were then washed and incubated with 5-10 μg/ml of multimer for 30 minutes at room temperature, and R-phycoerythrin-conjugated AffiniPure Fab fragment goat anti-mouse IgG1 (Jackson ImmunoResearch Laboratories) was added for 15 minutes at 4° C. Next, the cells were washed three times and costained with an anti-CD8 mAb for 15 minutes at 4° C. Dead cells were finally discriminated using the LIVE/DEAD Fixable Dead Cell Stain kit.

B1: C*03:04/NY-ESO-1 92-100 TCR (TCR, V domains shown)
Valpha: AQSVTQPDIHITVSEGASLELRCNYSYGATPYLFWYVQSPGQGLQLLLKYFSGDTLVQGIKGFEAEFKRSQSSFNLRKPSVHWSDAAEYFCAGMDSNYQLIWGAGTKLIIKP
Vbeta: NAGVTQTPKFQVLKTGQSMTLQCAQDMNHNSMYWYRQDPGMGLRLIYYSASEGTTDKGEVPNGYNVSRLNKREFSLRLESAAPSQTSVYFCASSLPLGYEQYFGPGTRLTVT
B1: recognises.
